# Data reported in the DeepSol protein solubility set.
# Experiment: soluble on expression in E. coli; label from the status in PepcDB or PDB records
row,Sequence,soluble on expression in E. coli
1,MSQFFYIHPDNPQQRLINQAVEIVRKGGVIVYPTDSGYALGCKIEDKNAMERICRIRQLPDGHNFTLMCRDLSELSTYSFVDNVAFRLMKNNTPGNYTFILKGTKEVPRRLLQEKRKTIGMRVPSNPIAQALLEALGEPMLSTSLMLPGSEFTESDPEEIKDRLEKQVDLIIHGGYLGQKPTTVIDLTDDTPVVVREGVGDVKPFL,soluble
2,MSLKIGKIVSVNFNQFRVKISSEIRGNSVNLAGTVYYFGNIGSYLKTTNSVGEQLICEVMSIFDSDTKLDSAAYDFDSNRELLLKPIGTITRDDRFNLGVGIFPGIYSEVNVVTFEDMELILQTGKDKELSKAIHQSFFLGESKNLINYPIDISINSFFNIHSAVLGNSGSGKSNTIAHIIQEIHKKKNNSAIGSRILIFDVNGEYKNAFTGHEISPYIKVRLLKPNIEATEDGVEPFYLPHFLMNIDEWSSFLMATDATQRPFWDKVLQESYKFYMIATHEGDDRQKLINYLRFKICNLIHILQAQGDSDTAIITTAQGILYGILTLIEMDDDLQRACQQEGVLQDLHDLNASEGHHHHHH,not soluble
3,MAHHHHHHMDPSVSLEGIVDLTASNFDEHVGKGVPALVEFYAPWCGHCKKMVPEFEKVGQAVKTARDKVLVGKVDATQNRDLAERFGVNGYPTILFFPADSQTKQQYSEAREAAAFLSFLNRQVPGLNIGVPHEHTYAVELTKRNFDAVVMDEAKDALVMFYAPWCGHCKKLHPVFERLATAFKEEADIVIGKLNADDASNGAVRNRYKVDGYPTLAFFQKRSKSEPQYYSGGRSLEELVEYVNERTGKNRLPSGDLSEKVGVNDELSKVLRDMMLKEKSVDEKKQYLEKVKKAAADLTGVEAVHYPRIAEKILQLGAEYVEMELGRIARLKQGDVKGEKRDMLTIRNNILASLKDE,not soluble
4,MGSDKIHHHHHHMKFSDIISKLEVTNYSLTQNPNNDPEITGMAAIDEATSGTLSYIEGAKFASFIAKTNASALILPQNEAMQAQAQERGIVWMATPEPRLLFAKAIALFYQPYTPTPEIHPTAVIHPTAKIGNDVYIGPHVVIQPGVEIGNGVIIHPNVVIYPGVKIGDRTILHANCTIEERSQIGADCVIHSGAVIGGEGFGFVPTRTGWYKMEQSGYVVLEDRVDIGCNTTIDRPSVGETRVGYDTKIDNLVQIAHGCQIGAGCAIAAQTGMAGGVKLGNRVILAGQVGIANQAKMGDGSTASAQTGILHDVKPGEVVSGTPAIPHKMYLKIAALYSRLPDMYQAFRQSQRQLEEEGKR,not soluble
5,GPGSMHLSELCRDSNIDVIIARLRQVAPLEPAPAFSLSEGAADDDTTPATGHSDFHGLWSYQDNDGRTAFHWAIALKNFDLARKLMQAPYNSPVLTEDEEWSTPFATACSVGAPLDLLREILDRSVVELAAHMKQKETQQNPTSEEQNSSSAAVTEPAEGSSDGKPTKFLSDMPGILQPVDGTPASISAVLVDAEDATGQTPLLLAVGRGHLSIVRFLLENGANLMHQNRRGQSCLHRAVNRGNMELVEFLVSTSENNAKSKAVHRVWMDLRDKHGDSALFYASMDNNEEIGRYLLRHGADRELRNADGKAFWEV,soluble
6,MPHLALLISKGAIMDRIIQSPGKYIQGADVINRLGEYLKPLAERWLVVGDKFVLGFAQSTVEKSFKDAGLVVEIAPFGGECSQNEIDRLRGIAETAQCGAILGIGGGKTLDTAKALAHFMGVPVAIAPTIASTDAPCSALSVIYTDEGEFDRYLLLPNNPNMVIVDTKIVAGAPARLLAAGIGDALATWFEARACSRSGATTMAGGKCTQAALALAELCYNTLLEEGEKAMLAAEQHVVTPALERVIEANTYLSGVGFESGGLAAAHAVHNGLTAIPDAHHYYHGEKVAFGTLTQLVLENAPVEEIETVAALSHAVGLPITLAQLDIKEDVPAKMRIVAEAACAEGETIHNMPGGATPDQVYAALLVADQYGQRFLQEWE,not soluble
7,MGSDKIHHHHHHLRIFGKEGCRMEMQRVIELDMPVNFRDLGGYQGLDGRQVKWRKIYRSAALNEMSARDRVKLANLRITVDCDLRSSREQRSYPDLLWPGVRFVNIGLYAEGDRFNQAHPFLRLFHHLPEFDDYLPKIYQQVLLNEHSEEGIKRVFEELLKLPEDQALVYHCAAGKDRTGIISILILMALGVDDKTIAEDYLLTDELYDFSIEKQHPTNEKLSQVIAKMNVTRGEGTAVKGITETIRQGWGSFDKFFTRKLGFKQADLEKFREMYLEEEEED,not soluble
8,MSQRGLEALLRPKSIAVIGASMKPNRAGYLMMRNLLAGGFNGPVLPVTPAWKAVLGVLAWPDIASLPFTPDLAVLCTNASRNLALLEELGEKGCKTCIILSAPASQHEDLRACALRHNMRLLGPNSLGLLAPWQGLNASFSPVPIKRGKLAFISQSAAVSNTILDWAQQREMGFSYFIALGDSLDIDVDELLDYLARDSKTSAILLYLEQLSDARRFVSAARSASRNKPILVIKSGRSPAAQRLLNTTAGMDPAWDAAIQRAGLLRVQDTHELFSAVETLSHMRPLRGDRLMIISNGAAPAALALDALWSRNGKLATLSEETCQKLRDALPGHVAISNPLDLRDDASSEHYVKTLDILLHSQDFDALMVIHSPSAAAPATEIAQVLIEAVKHHPRSKYVSLLTNWCGEHSSQEARRLFSEAGLPTYRTPEGTITAFMHMVEYRRNQKQLRETPALPSNLTSNTAKAHLLLQQAIAEGATSLDTHEVQPILQSYGMNTLPTWIASDSTEAVHIAEQIGYPVALKLRSPDIPHKSEVQGVMLYLRTANEVQQAANAIFDRVKMTWPQARVHGLLVQSMANRAGAQELRVVVEHDPVFGPLIMLGEGGVEWRPEDQAVVALPPLNMNLARYLVIQGIKSKKIRARSALRPLDVAGLSQLLVQVSNLIVDCPEIQRLDIHPLLASGSEFTALDVTLDIAPFEGDNESRLAVRPYPHQLEEWVELKNGERCLFRPILPEDEPQLQQFISRVTKEDLYYRYFSEINEFTHEDLANMTQIDYDREMAFVAVRRIDQTEEILGVTRAISDPDNIDAEFAVLVRSDLKGLGLGRRLMEKLITYTRDHGLQRLNGITMPNNRGMVALARKLGFNVDIQLEEGIVGLTLNLAQREES,not soluble
9,MGHHHHHHSHMELKQSLSTHLEAEKPLRRYGAVEETAWKTERLGRNQLDIISMAETTMMPEEIELEMAKIQRLREVLVRRESELRFMMDDIQLCKDIMDLKQELQNLVAIPEKEKTKLQKQREDELIQKIHKLVQKRDFLVDDAEVERLREQEEDKEMADFLRIKLKPLDKVTKSPASSRAEKKAEPPPSKPTVAKTGLALIKDCCGATQCNIM,soluble
10,MAHHHHHHMLQRVLARLPGAPACISDPLHMRALLELIGYVEPGDNLNRVAYAGELHYPPQAHAFMAELLAEGRQRDGGDAFDAIRERRAGPGYAIDSATTSEVDDAIGVCVDGATGAKYFVVYVSDATVYCPFDSTLEQLTARRLTTTTYLPEGVFFMLPKPIVEAATLREDRPCRTFNVIFQIDESTGEVKNYSVAVGWLDQLRRITYDQVQEIVNKEEGKEEGDEHDSAAVVAAAHDTDASSSPPLLAGCADSAHPPPAWMTREDKDNLFYILRCARLRLRARLERQQRQQQQHHHGAGGKDCGDEGVPATPPVDFSLPDPLIEVKGTKVLSVTDQVISTQDARLAVAELMIAANEVCSRVAQANHIAMPFRGTRTLSSDHLVAHYYTEPEGVRTLMSLDASHIFLAEAMQSSVRRLSTVTRAIYHHVPLHHAGLDTTFYTHSTSPLRRYADMLVHHQLKTWLWQQRRGGGSSDHTSATSTSAARAAMVAAPQQLIPEHAMASLCTMISAKQERASLLQDNSTRFWILRYLEDLERASANAAAAARGDGDGDTHRKKTYLCLVGETRRVVAAPAYSRFACSSAEMSQLLSLPLTAPSTTSSTVRRPASLQMDAVARWRQETPEFTYVSDVYIPEVQLAHTITHHRDDVLVGAVLECHITRVQPTQGVLELAIERVLPGGDERHYERLWMGGFVSQLDA,not soluble
11,MSKMTRHDAQLYELKKKIEELKKIRGRGTELISLYIPAGYDLSKVMQQLREEYSTAQNIKSKTTRKNVLGALERAMQHLKLYKQTPENGLALFVGNVSEIEGNTDIRLWAIIPPEPLNVRLYRCDQTFVTEPLEEMLRVKDAYGLITVEKNEATIGLLRGKRIELLDELTSNVPGKTRAGGQSARRYERIREQETHEFMKRIGEHANRAFLPLLEKGELKGIIIGGPGPTKEEFVEGEYLHHELKKKILGVVDISYHGEYGLRELVEKASDILRDHEVIREKKLVNEFLKHVVKDTGLATYGEREVRRALEIGAVDVLLISEGYNKVRVRVKCNHCGWEELKTMSEEEYEVYRKKITKCPKCGSQNLTIEKWDVAEELIKMAEEAGSDVEIISLDTEEGQQFYRAFGGLGAILRFKI,soluble
